# Data: PMC9886862
# Biological target: HoxG, large subunit of the membrane-bound [NiFe]-hydrogenase (MBH) from Cupriavidus necator, isolated, with N-terminal Strep-tag II (Cupriavidus necator) (UniProt P31891)
# Assay: SEC; HoxG at higher concentrations (series 0.5, 2.5, 12.5 and 60 mg/ml); Superdex 200 Increase 10/300 GL; 50 mM KiPO4, 150 mM NaCl, pH 7.4, 4 °C; sizes from a calibration curve of reference proteins
substance,measurement,value
"HoxG, large subunit of the membrane-bound [NiFe]-hydrogenase (MBH) from Cupriavidus necator, isolated, with N-terminal Strep-tag II (from UniProt P31891 1-618) (natural protein)",stoichiometry N,2
